Assay results reported in ChEMBL document CHEMBL2073939, “Export pumps for anionic conjugates encoded by MRP genes” (Adv Enzyme Regul, 1999).

B1: Multidrug resistance-associated protein 1 (Homo sapiens) (protein)
chain: MALRGFCSADGSDPLWDWNVTWNTSNPDFTKCFQNTVLVWVPCFYLWACFPFYFLYLSRHDRGYIQMTPLNKTKTALGFLLWIVCWADLFYSFWERSRGIFLAPVFLVSPTLLGITMLLATFLIQLERRKGVQSSGIMLTFWLVALVCALAILRSKIMTALKEDAQVDLFRDITFYVYFSLLLIQLVLSCFSDRSPLFSETIHDPNPCPESSASFLSRITFWWITGLIVRGYRQPLEGSDLWSLNKEDTSEQVVPVLVKNWKKECAKTRKQPVKVVYSSKDPAQPKESSKVDANEEVEALIVKSPQKEWNPSLFKVLYKTFGPYFLMSFFFKAIHDLMMFSGPQILKLLIKFVNDTKAPDWQGYFYTVLLFVTACLQTLVLHQYFHICFVSGMRIKTAVIGAVYRKALVITNSARKSSTVGEIVNLMSVDAQRFMDLATYINMIWSAPLQVILALYLLWLNLGPSVLAGVAVMVLMVPVNAVMAMKTKTYQVAHMKSKDNRIKLMNEILNGIKVLKLYAWELAFKDKVLAIRQEELKVLKKSAYLSAVGTFTWVCTPFLVALCTFAVYVTIDENNILDAQTAFVSLALFNILRFPLNILPMVISSIVQASVSLKRLRIFLSHEELEPDSIERRPVKDGGGTNSITVRNATFTWARSDPPTLNGITFSIPEGALVAVVGQVGCGKSSLLSALLAEMDKVEGHVAIKGSVAYVPQQAWIQNDSLRENILFGCQLEEPYYRSVIQACALLPDLEILPSGDRTEIGEKGVNLSGGQKQRVSLARAVYSNADIYLFDDPLSAVDAHVGKHIFENVIGPKGMLKNKTRILVTHSMSYLPQVDVIIVMSGGKISEMGSYQELLARDGAFAEFLRTYASTEQEQDAEENGVTGVSGPGKEAKQMENGMLVTDSAGKQLQRQLSSSSSYSGDISRHHNSTAELQKAEAKKEETWKLMEADKAQTGQVKLSVYWDYMKAIGLFISFLSIFLFMCNHVSALASNYWLSLWTDDPIVNGTQEHTKVRLSVYGALGISQGIAVFGYSMAVSIGGILASRCLHVDLLHSILRSPMSFFERTPSGNLVNRFSKELDTVDSMIPEVIKMFMGSLFNVIGACIVILLATPIAAIIIPPLGLIYFFVQRFYVASSRQLKRLESVSRSPVYSHFNETLLGVSVIRAFEEQERFIHQSDLKVDENQKAYYPSIVANRWLAVRLECVGNCIVLFAALFAVISRHSLSAGLVGLSVSYSLQVTTYLNWLVRMSSEMETNIVAVERLKEYSETEKEAPWQIQETAPPSSWPQVGRVEFRNYCLRYREDLDFVLRHINVTINGGEKVGIVGRTGAGKSSLTLGLFRINESAEGEIIIDGINIAKIGLHDLRFKITIIPQDPVLFSGSLRMNLDPFSQYSDEEVWTSLELAHLKDFVSALPDKLDHECAEGGENLSVGQRQLVCLARALLRKTKILVLDEATAAVDLETDDLIQSTIRTQFEDCTVLTIAHRLNTIMDYTRVIVLDKGEIQEYGAPSDLLQQRGLFYSMAKDAGLV
B2: Multidrug resistance-associated protein 1 (Mus musculus) (protein)
chain: MALRSFCSADGSDPLWDWNVTWHTSNPDFTKCFQNTVLTWVPCFYLWSCFPLYFFYLSRHDRGYIQMTHLNKTKTALGFFLWIICWADLFYSFWERSQGVLRAPVLLVSPTLLGITMLLATFLIQLERRKGVQSSGIMLTFWLVALLCALAILRSKIISALKKDAHVDVFRDSTFYLYFTLVLVQLVLSCFSDCSPLFSETVHDRNPCPESSASFLSRITFWWITGMMVHGYRQPLESSDLWSLNKEDTSEEVVPVLVNNWKKECDKSRKQPVRIVYAPPKDPSKPKGSSQLDVNEEVEALIVKSPHKDREPSLFKVLYKTFGPYFLMSFLYKALHDLMMFAGPKILELIINFVNDREAPDWQGYFYTALLFVSACLQTLALHQYFHICFVSGMRIKTAVVGAVYRKALLITNAARKSSTVGEIVNLMSVDAQRFMDLATYINMIWSAPLQVILALYFLWLSLGPSVLAGVAVMILMVPLNAVMAMKTKTYQVAHMKSKDNRIKLMNEILNGIKVLKLYAWELAFQDKVMSIRQEELKVLKKSAYLAAVGTFTWVCTPFLVALSTFAVFVTVDERNILDAKKAFVSLALFNILRFPLNILPMVISSIVQASVSLKRLRIFLSHEELEPDSIERRSIKSGEGNSITVKNATFTWARGEPPTLNGITFSIPEGALVAVVGQVGCGKSSLLSALLAEMDKVEGHVTLKGSVAYVPQQAWIQNDSLRENILFGHPLQENYYKAVMEACALLPDLEILPSGDRTEIGEKGVNLSGGQKQRVSLARAVYSNSDIYLFDDPLSAVDAHVGKHIFEKVVGPMGLLKNKTRILVTHGISYLPQVDVIIVMSGGKISEMGSYQELLDRDGAFAEFLRTYANAEQDLASEDDSVSGSGKESKPVENGMLVTDTVGKHLQRHLSNSSSHSGDTSQQHSSIAELQKAGAKEETWKLMEADKAQTGQVQLSVYWNYMKAIGLFITFLSIFLFLCNHVSALASNYWLSLWTDDPPVVNGTQANRNFRLSVYGALGILQGAAIFGYSMAVSIGGIFASRRLHLDLLYNVLRSPMSFFERTPSGNLVNRFSKELDTVDSMIPQVIKMFMGSLFSVIGAVIIILLATPIAAVIIPPLGLVYFFVQRFYVASSRQLKRLESVSRSPVYSHFNETLLGVSVIRAFEEQERFIHQSDLKVDENQKAYYPSIVANRWLAVRLECVGNCIVLFAALFAVISRHSLSAGLVGLSVSYSLQITAYLNWLVRMSSEMETNIVAVERLKEYSETEKEAPWQIQETAPPSTWPHSGRVEFRDYCLRYREDLDLVLKHINVTIEGGEKVGIVGRTGAGKSSLTLGLFRINESAEGEIIIDGVNIAKIGLHNLRFKITIIPQDPVLFSGSLRMNLDPFSQYSDEEVWMALELAHLKGFVSALPDKLNHECAEGGENLSVGQRQLVCLARALLRKTKILVLDEATAAVDLETDNLIQSTIRTQFEDCTVLTIAHRLNTIMDYTRVIVLDKGEVRECGAPSELLQQRGIFYSMAKDAGLV

Columns and labels:
[1] = substrate: Cc1ccc(N(CC(=O)O)CC(=O)O)c(OCCOc2cc(-c3c4cc(Cl)c(=O)cc-4oc4cc(O)c(Cl)cc34)ccc2N(CC(=O)O)CC(=O)O)c1; assay: TP_TRANSPORTER: uptake in membrane vesicle from MRP1-expressing HeLa cells; format: functional, cell membranes
[2] = substrate: CCCCC/C=C\C\C=C/C=C/C=C/[C@@H](SC[C@@H](NC(=O)CC[C@H](N)C(=O)O)C(=O)NCC(=O)O)[C@@H](O)CCCC(=O)O; assay: cells, lysate or membranes named

Protein	Km [1]	Km [2]
B1	12 µM	
B2		0.1 µM
